Assay results from patent US20190225687A1 (I MAB, published 2019).

Key:
[1] = target: T1, LAG3 antigen of the Octet RED96 runs (UniProt P18627 23-450, limits assumed); assay: BLI, Octet RED96, full kinetics, antigen 3.125-50 nM
T1 sequence (looked up): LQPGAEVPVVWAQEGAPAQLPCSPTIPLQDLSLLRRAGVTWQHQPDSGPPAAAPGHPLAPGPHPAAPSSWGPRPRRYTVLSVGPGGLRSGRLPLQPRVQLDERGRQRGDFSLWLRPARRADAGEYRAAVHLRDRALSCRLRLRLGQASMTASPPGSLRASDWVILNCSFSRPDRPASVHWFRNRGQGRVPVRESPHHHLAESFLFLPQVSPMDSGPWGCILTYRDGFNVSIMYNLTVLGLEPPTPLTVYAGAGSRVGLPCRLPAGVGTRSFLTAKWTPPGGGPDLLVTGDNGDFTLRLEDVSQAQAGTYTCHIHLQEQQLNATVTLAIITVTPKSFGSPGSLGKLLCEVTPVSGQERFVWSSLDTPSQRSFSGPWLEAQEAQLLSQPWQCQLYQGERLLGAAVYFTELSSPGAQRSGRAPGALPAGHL
Method: The binding affinity was calculated by software in Octet® RED96 System.

[2] = target: T2, human LAG3 of the LAG3 and MHC II binding assay kit (Cisbio, 64ICP03PEG) (human, UniProt P18627 23-450, limits assumed); assay: TR-FRET LAG3/MHC II binding assay (Cisbio); blocks MHC II
T2 construct: Bought kit reagent
T2 sequence (looked up): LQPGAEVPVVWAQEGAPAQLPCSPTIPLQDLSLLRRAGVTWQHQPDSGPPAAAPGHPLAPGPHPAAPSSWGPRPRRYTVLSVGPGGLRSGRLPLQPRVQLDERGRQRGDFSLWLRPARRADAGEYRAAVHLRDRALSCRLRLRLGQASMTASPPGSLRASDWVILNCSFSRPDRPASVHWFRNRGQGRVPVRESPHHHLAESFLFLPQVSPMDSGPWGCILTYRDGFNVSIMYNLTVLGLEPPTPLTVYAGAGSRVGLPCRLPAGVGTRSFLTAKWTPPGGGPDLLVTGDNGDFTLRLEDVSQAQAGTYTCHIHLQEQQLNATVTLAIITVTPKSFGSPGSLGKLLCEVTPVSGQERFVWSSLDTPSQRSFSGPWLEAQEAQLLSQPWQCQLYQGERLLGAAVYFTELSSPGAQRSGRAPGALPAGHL
Method: To measure the ability of anti-LAG3 monoclonal antibodies to block the interaction between human LAG3 and MHCII, the LAG3 and MHC II binding assay (Cisbio, 64ICP03PEG) were performed utilizing homogeneous TR-FRET technology, following the protocol provided by the kit manufacturer. Anti-human LAG3 antibodies were 3-fold diluted ranging from 100 nM to 5 pM (10 points). Fluorescence data was acquired on a PerkinElmer Envision plate reader and a four-parameter dose-response curve was fitted to obtain IC50 of each antibody.

B1: 147H-6 (antibody, V domains shown)
VH: QVQLVQSGAEVKKPGASVKVSCKASGYTFTNYWLGWIKQAPGQGLEWIGDIYPGGDYINYNEKFKGKATLTADTSISTAYMELSRLRSDDTAVYYCARPNLPGDYWGQGTTVTVSS
VL: DIVMTQSPLSLPVTPGEPASISCRSSKSLLHSNGITYLYWYLQKPGQSPQLLIYQVSNLASGVPDRFSGSGSGTDFTLKISRVEAEDVGVYYCAQNLELPWTFGGGTKVEIK
- Kd [1]: 26.5 nM
- koff [1]: 0.00312 s⁻¹
- kon [1]: 118000 M⁻¹ s⁻¹

B2: 147H-13 (antibody, V domains shown)
VH: EVQLVQSGAEVKKPGASVKVSCKASGYTFTNYWLGWIKQAPGQGLEWIGDIYPGGDYINYNEKFKGKATLTADTSISTAYMELSRLRSDDTAVYYCARPNLPGDYWGQGTTVTVSS
VL: DIVMTQSPLSLPVTPGEPASISCRSSKSLLHSNGITYLYWYLQKPGQSPQLLIYQVSNLASGVPDRFSGSGSGTDFTLKISRVEAEDVGVYYCAQNLELPWTFGGGTKVEIK
notes: also called 147H4-13
- IC50 [2]: 2.2 to 7.6 nM

B3: 147H 3421 (antibody, V domains shown)
VH: EVQLVQSGAEVKKPGASVKVSCKASGYTFTNYWLGWIKQAPGQGLEWIGDIYPGGDYINYNEKFKGKATLTADTSISTAYMELSRLRSDDTAVYYCARPNLPKDHWGQGTTVTVSS
VL: DIVMTQSPLSLPVTPGEPASISCRSSKSLLHSNAITYLYWYLQKPGQSPQLLIYQVSNLASGVPDRFSGSGSGTDFTLKISRVEAEDVGVYYCAQNLELPWTFGGGTKVEIK
- IC50 [2]: 1.5 nM

B4: 147H 3508 (antibody, V domains shown)
VH: EVQLVQSGAEVKKPGASVKVSCKASGYTFTNYWLGWIKQAPGQGLEWIGDIYPGGDYINYNEKFKGKATLTADTSISTAYMELSRLRSDDTAVYYCARPNLPKDHWGQGTTVTVSS
VL: DIVMTQSPLSLPVTPGEPASISCRSSKSLLHSNAITYLYWYLQKPGQSPQLLIYQVSNLASGVPDRFSGSGSGTDFTLKISRVEAEDVGVYYCGQNLELPWTFGGGTKVEIK
- IC50 [2]: 0.55 nM

B5: 147H 3549 (antibody, V domains shown)
VH: EVQLVQSGAEVKKPGASVKVSCKASGYTFTNYWLGWIKQAPGQGLEWIGDIYPGGDYINYNEKFKGKATLTADTSISTAYMELSRLRSDDTAVYYCARPNLPKDHWGQGTTVTVSS
VL: DIVMTQSPLSLPVTPGEPASISCRSSKSLLHSNAITYLYWYLQKPGQSPQLLIYQVSNLASGVPDRFSGSGSGTDFTLKISRVEAEDVGVYYCAQYLEEPWTFGGGTKVEIK
- IC50 [2]: 0.44 nM

B6: 147H 3550 (antibody, V domains shown)
VH: EVQLVQSGAEVKKPGASVKVSCKASGYTFTNYWLGWIKQAPGQGLEWIGDIYPGGDYINYNEKFKGKATLTADTSISTAYMELSRLRSDDTAVYYCARPNLPKDHWGQGTTVTVSS
VL: DIVMTQSPLSLPVTPGEPASISCRSSKSLLHSNAITYLYWYLQKPGQSPQLLIYQVSNLASGVPDRFSGSGSGTDFTLKISRVEAEDVGVYYCAQYLELPWTFGGGTKVEIK
- IC50 [2]: 0.39 nM

B7: 147H 3663 (antibody, V domains shown)
VH: EVQLVQSGAEVKKPGASVKVSCKASGYTFENYWLGWIKQAPGQGLEWIGDIYPGGDYIVYNEKFKGKATLTADTSISTAYMELSRLRSDDTAVYYCARPNLPGDYWGQGTTVTVSS
VL: DIVMTQSPLSLPVTPGEPASISCRSSKSLLHSNAITYLYWYLQKPGQSPQLLIYQVSNLARGVPDRFSGSGSGTDFTLKISRVEAEDVGVYYCAQNLELPWTFGGGTKVEIK
- IC50 [2]: 2.7 nM

B8: 147H 3668 (antibody, V domains shown)
VH: EVQLVQSGAEVKKPGASVKVSCKASGYTFTNYWLGWIKQAPGQGLEWIGDIYPGGDYIVYNEKFKGKATLTADTSISTAYMELSRLRSDDTAVYYCARPNLPGDYWGQGTTVTVSS
VL: DIVMTQSPLSLPVTPGEPASISCRSSKSLLHSNAITYLYWYLQKPGQSPQLLIYQVSNLATGVPDRFSGSGSGTDFTLKISRVEAEDVGVYYCAQNLELPWTFGGGTKVEIK
- IC50 [2]: 0.9 nM

B9: 147H 3669 (antibody, V domains shown)
VH: EVQLVQSGAEVKKPGASVKVSCKASGYLFTNYWLGWIKQAPGQGLEWIGDIYPGGDYIVYNEKFKGKATLTADTSISTAYMELSRLRSDDTAVYYCARPNLPGDYWGQGTTVTVSS
VL: DIVMTQSPLSLPVTPGEPASISCRSSKSLLHSNAITYLYWYLQKPGQSPQLLIYQVSNLASGVPDRFSGSGSGTDFTLKISRVEAEDVGVYYCAQNLELPWTFGGGTKVEIK
- IC50 [2]: 1.2 nM

B10: 147H 3792 (antibody, V domains shown)
VH: EVQLVQSGAEVKKPGASVKVSCKASGYTFTNYWLGWIKQAPGQGLEWIGDIYPGGDYIVYNEKFKGKATLTADTSISTAYMELSRLRSDDTAVYYCARPNLPGDYWGQGTTVTVSS
VL: DIVMTQSPLSLPVTPGEPASISCRSSKSLLHSNAITYLYWYLQKPGQSPQLLIYQVSNLASGVPDRFSGSGSGTDFTLKISRVEAEDVGVYYCAQYLELPWTFGGGTKVEIK
- IC50 [2]: 0.73 nM

B11: 147H 3794 (antibody, V domains shown)
VH: EVQLVQSGAEVKKPGASVKVSCKASGYLFTNYWLGWIKQAPGQGLEWIGDIYPGGDYIVYNEKFKGKATLTADTSISTAYMELSRLRSDDTAVYYCARPNLPGDYWGQGTTVTVSS
VL: DIVMTQSPLSLPVTPGEPASISCRSSKSLLHSNAITYLYWYLQKPGQSPQLLIYQVSNLASGVPDRFSGSGSGTDFTLKISRVEAEDVGVYYCAQYLELPWTFGGGTKVEIK
- IC50 [2]: 0.63 nM

B12: 147H 3807 (antibody, V domains shown)
VH: EVQLVQSGAEVKKPGASVKVSCKASGYTFTNYWLGWIKQAPGQGLEWIGDIYPGGDYIVYNEKFKGKATLTADTSISTAYMELSRLRSDDTAVYYCARPNLPKDHWGQGTTVTVSS
VL: DIVMTQSPLSLPVTPGEPASISCRSSKSLLHSNAITYLYWYLQKPGQSPQLLIYQVSNLASGVPDRFSGSGSGTDFTLKISRVEAEDVGVYYCAQYLELPWTFGGGTKVEIK
notes: also called B3807
- IC50 [2]: 0.31 nM

B13: 147H 3808 (antibody, V domains shown)
VH: EVQLVQSGAEVKKPGASVKVSCKASGYTFTNYWLGWIKQAPGQGLEWIGDIYPGGDYIVYNEKFKGKATLTADTSISTAYMELSRLRSDDTAVYYCARPNLPKDHWGQGTTVTVSS
VL: DIVMTQSPLSLPVTPGEPASISCRSSKSLLHSNAITYLYWYLQKPGQSPQLLIYQVSNLASGVPDRFSGSGSGTDFTLKISRVEAEDVGVYYCGQYLELPWTFGGGTKVEIK
- IC50 [2]: 0.5 nM

B14: 147H 3809 (antibody, V domains shown)
VH: EVQLVQSGAEVKKPGASVKVSCKASGYLFTNYWLGWIKQAPGQGLEWIGDIYPGGDYIVYNEKFKGKATLTADTSISTAYMELSRLRSDDTAVYYCARPNLPKDHWGQGTTVTVSS
VL: DIVMTQSPLSLPVTPGEPASISCRSSKSLLHSNAITYLYWYLQKPGQSPQLLIYQVSNLASGVPDRFSGSGSGTDFTLKISRVEAEDVGVYYCAQYLELPWTFGGGTKVEIK
- IC50 [2]: 0.96 nM

B15: 147H 3810 (antibody, V domains shown)
VH: EVQLVQSGAEVKKPGASVKVSCKASGYLFTNYWLGWIKQAPGQGLEWIGDIYPGGDYIVYNEKFKGKATLTADTSISTAYMELSRLRSDDTAVYYCARPNLPKDHWGQGTTVTVSS
VL: DIVMTQSPLSLPVTPGEPASISCRSSKSLLHSNAITYLYWYLQKPGQSPQLLIYQVSNLATGVPDRFSGSGSGTDFTLKISRVEAEDVGVYYCAQYLELPWTFGGGTKVEIK
notes: also called B3810
- IC50 [2]: 0.63 nM

B16: 147H 3811 (antibody, V domains shown)
VH: EVQLVQSGAEVKKPGASVKVSCKASGYLFTNYWLGWIKQAPGQGLEWIGDIYPGGDYIVYNEKFKGKATLTADTSISTAYMELSRLRSDDTAVYYCARPNLPKDHWGQGTTVTVSS
VL: DIVMTQSPLSLPVTPGEPASISCRSSKSLLHSNAITYLYWYLQKPGQSPQLLIYQVSNLATGVPDRFSGSGSGTDFTLKISRVEAEDVGVYYCGQYLELPWTFGGGTKVEIK
- IC50 [2]: 0.59 nM
